Assay results from patent US20240026407A1, “MODIFICATION OF SAPONINS” (GLAXOSMITHKLINE BIOLOGICALS SA, priority 2020, published 2024).

What was measured:
Format in all cases: biochemical, Quillaja saponaria
[1] = Experiment 6-1: screening of rhamnosidases for derhamnosylation of saponins in treated bark extract (2%), QS-17 2296 to QS-18 2150 (PAR %); settings: TBE 2%, pH 7.5, 30 degC, 18 h; TIC peak area ratio percent of rhamnosylated starting saponin to derhamnosylated product, LCMS/MS; negative controls 4.876, 5.225
[2] = Experiment 6-1: screening of rhamnosidases for derhamnosylation of saponins in treated bark extract (2%), desglucosyl-QS-17 2134 to QS-21 1988 (PAR %); settings: TBE 2%, pH 7.5, 30 degC, 18 h; TIC peak area ratio percent, LCMS/MS; negative controls 2.719, 2.158
[3] = Experiment 6-1: screening of rhamnosidases for derhamnosylation of saponins in treated bark extract (2%), QS-17 2310 to QS-18 2164 (PAR %); settings: TBE 2%, pH 7.5, 30 degC, 18 h; TIC peak area ratio percent, LCMS/MS; negative controls 3.061, 2.429
[4] = Experiment 6-1: specificity of rhamnosidases towards other rhamnose residues (C3 saccharide rhamnose, C28 saccharide rhamnose); settings: TBE 2%, pH 7.5, 30 degC, 18 h; LCMS/MS; negative controls 0.18, 0.17

B1: 1020 (protein, listed as Rhodonellum psychrophilum)
chain: MKSLSKILTTVTLLLAVFACEKKPAEIVLFSMMDGVEGLSGKTEYLASPYVTAGDRVYMVGHQDGSFPDLGWHVEGEMGGIWNHPIKLMDGFTNAIEIEGNRFCLDNASAFINYPFANKHEFKNSVPGLEVERFQFVPDGKQGLVIEYLFKNVDKSKKSFVFEFDGHTDLMPVWLGDRAGMIDHVDNLVFDDQRQAWRGKDEGNEWYVLFGANQTASHSQGDSSLCNYFPQGKGKSAKLSYEMELSANGEGSLKFFIAGSYSGLDDVQKTFDLIKTHPETFLKDKRTNYDRIASLSKITIPDKELEKTFEWVKYNTEWLVRDIPEVGRGLGAGMPDYPWWFGVDNEYTLKGAIATGRKDLVYATVDLIHKLSVQENDNGKIVHEVSTNGVVFNPGNINETPQFASLIWYVYQWTGDKAFLEKYYPTIKKGLVWLMEENDKDGNLFPDGYGMMEIHGLESEMIDVAVYTQKAFADAAQMALLMAEPEVARSYQQTADLMKAKINTDFWVESANSYADFIGTAAETFPLVDAAIIRADTLGKPWAVEELKLLRKKLSTYPRNKKQGFVLFHNWVVNTPMEMGIADPEKAIKALDKGSKFVNPFGVFVTGIDRDEASQSEDGSFTGSKVFSYTGAVMTLPTGVQAISENNYGRPDQALAYLQMMVKSFGFALPGSIYEVSPDYGMMAQAWNLYSFGVPIVTQFFGIQPDAGNKVIHISTQMPSDWDSAKIEKVLIGDNVLTLSFLRVEGEIQLQINQTKGDWQIDFVFPTGKYNVWKVGGKEVEKTRVGNQEVFRTSGTSISASFK
QS-17 (PAR %) [1]: 5.058%
Peak75 (PAR %) [2]: 2.360%
Peak57 (PAR %) [3]: 3.288%
ratio PP/QS-21 [4]: 0.17

B2: 1037 (protein, listed as Pedobacter heparinus)
chain: MNLKRHILLTAILMLNLSIAFSQVTLQNLRCEMLQNPLGIDVARPRLSWQIASTRNDVQQTAYHILVASSLAKLTENDADIWNSGKVNSAESLYNLYAGQTLKSKNKYYWKVKVYTSKGESSWSQPAFWLMGLLHYKDWEGRWIGFDRFFTGDNEAGARLSARYFRKEFSTTKTVASATAYLMGMGLYELYIDGQKIGDQVLAPTATDYTKNIKYNTLDVTEQLRQGGNHAIGVILGNGRFFAMRQSKAYKVKTFGLPKLLLQVNIKYTDGSTATIKTDDTWKGTADGPILANNEYDGEIYDARKEFKGWSEPGFKEDKWLRAEYVQEPGGTYEAQLNEGMKVMKTLSPVSITRRPNGNYILDFGQNFSGWVKFNVKGPRGTSVSLRFAESLEPNGELFRTNLRDARATDIYTLKGEGTETWAPRFTYQGFRYVELNGYPGVPQKSDFSGCLVYDDMKTAGTFESSNSLLNQIFKNAWWGIASNYKGMPVDCPQRNERQPWLGDRTVGAYGESFLFDNTALYKKWLDDIRYAQKEDGAIPDVAPAFWRYYSDNVTWPATLLFVADMLYRQTGDSTVIRKNYPAVKKWMSYMKDRYMSSEGIMTKDSYGDWCAPPATAEDGKGVNADQKHPSALIATAYYYHLANMMAGYSALTGNAGDREGYTRLAAEVKNAFNRKFYNSQGYYGDNKLTDNLLPVYFGLVEEADKGRVVMQICSIIEEKNNGHLSTGLIGTQFLMRTLTEAGRPDLAYRIASQKTYPSWGYMIENGATAIWELWNGNTAAPKMNSQNHVMMLGDLMIWYYENLAGIKAAAPGFKEITMKPELIEGLNNVTAGYQSVYGLIKSSWTKTGKKFSWNISIPPNTRAKAYLPASMQSQVKKGATADGAKYIMAENGRVVFELKSGEYAFVVEQ
QS-17 (PAR %) [1]: 4.972%
Peak75 (PAR %) [2]: 2.424%
Peak57 (PAR %) [3]: 2.764%
ratio PP/QS-21 [4]: 0.17

B3: 1000 (protein, listed as Aspergillus terreus)
chain: MALSISQVAFEHHRTALGIGETQPRVSWRFDGNVSDWEQRAYEIEVKRAGHDADVFRSESSDSVLVPWPSSPLQSGEEATVRVRSFGSDGQHDTPWSDAVTVEPGLLTPDDWHDAVVIASDRPTEVDATHRPIQFRKEFSVDDSYVSARLYITALGLYEARINDQRVGDHVMAPGWQSYQYRHEYNTYDVTDLLKQGPNAIGVTVGEGWYSGRIGYDGGKRNIYGDTLGLLSLLVVTKSDGSKLYIPSDSSWKSSTGPIISSEIYDGEEYDSRLEQKGWSQVGFNSTGWLGTHELSFPKERLASPDGPPVRRVAEHKLANVFSSASGKTVLDFGQNLVGWLRIRVKGPKGQTIRFVHTEVMENGEVATRPLRQAKATDHFTLSGEGVQEWEPSFTYHGFRYVQVDGWPADTPLDENSVTAIVVHSDMERTGYFECSNPLISKLHENILWSMRGNFFSIPTDCPQRDERLGWTGDIHAFSRTANFIYDTAGFLRAWLKDARSEQLNHSYSLPYVIPNIHGNGETPTSIWGDAIVGVPWQLYESFGDKVMLEEQYGGAKDWVDKGIVRNDVGLWDRSTFQWADWLDPKAPADDPGDATTNKYLVSDAYLLHSTDMLANISTSLSKGEEASNYTEWHAKLTKEFQKAWITSNGTMANETQTGLALPLYFDLFPSAEQAQSAAKRLVNIIKQNDYKVGTGFAGTHLLGHTLSKYGESDAFYSMLRQTEVPSWLYQVVMNGTTTWERWDSMLPNGSINPGQMTSFNHYAVGSVGSWLHEVIGGLSPAEPGWRRINIEVVPGGDLQQASTKFLTPYGMASTKWWLDGQDQSCGGFDFHLVAEVPPNTRATVVLPGKGGEKVDVGSGVHEYHVRCVKL
QS-17 (PAR %) [1]: 5.010%
Peak75 (PAR %) [2]: 2.788%
Peak57 (PAR %) [3]: 3.119%
ratio PP/QS-21 [4]: 0.16

B4: 1048 (protein, listed as Klebsiella oxytoca)
chain: MSQAIQHNSQVMMTRHPNFLRTAEALRPALSRQAHPPIAVVEAHADAAALFGWRAEPVSTLAAFYQRELSSGDSVIIDFGSHYVGYLHFLCQSAGSPPDAPAHLQLTFGETLSEVCEPFSDYQGWLSSSWLQQQDLWLDVLPAEIDLPRRYCFRYLKVEVKAVSRKFRLQFTQIEVNAVTSASGACPAATTSDPQLRAIDNVAVLTLQNCMQEVFEDGPKRDRRLWLGDLRLQALVNDVTFARHDLVRRCLYLFAGHTREDGMVSANVFVQPDVIADDTFLFDYSLFFVDVLYNYLQSAEDMATARELWPTARRQVELALTRCDASGVVRDSDDWWVFIDWQASLNKQAAAQGVLIYCLQRAIWLAERFEPELAVSYRQRLQQLKSAALDALWDPQQGFYVSGARRQVSWASQIWLVLAEVGTPQQRREIMRNLEKNPPAVAMNTPYLRHHYIAALLQCGLRDEAIAQIKAYWGAMVDYGADTFWEIFDPAHPDFSPYGSKLINSYCHAWSCTPAWFIRQYGL
QS-17 (PAR %) [1]: 5.007%
Peak75 (PAR %) [2]: 2.441%
Peak57 (PAR %) [3]: 2.465%
ratio PP/QS-21 [4]: 0.17

B5: 1065 (protein, listed as Chitinophaga pinensis)
chain: MRIILTAAFLLITSIVSAQYNAWKGSWITNTEDTTATKAPYLRKTFTLDKKVVSATAYVAGVGYHIVFVNGKPVTDAVLEQAYTRYDKRLLYKVYDVTALLSRKGTQSIAAELGNGWYNIQSHAVWGFQNAPWRKTPRLLLDLVIRYDDGTTETIATDNSWKCATGPSQFNCLYSGEIYDARQEVAGWNQTAFNDAGWKQVLLTSSPGGALHEQIMPSIKVIRRIKPVSMKNLGNGKYLFDMGQNFAGVATLNVKGQAGTKVTMYYGEVLKNGELDMVHNTEHMRSMPGELRFQTDVYFLKGGAREVFTPRFVYHGFQYVQIETDQPLELNVHSLEGLFYSTAFEEAGHFTSSDPMINKLYEAARQSYRSNFLSIPTDCPQREKNGWTADAHISTEIGLWNYQTTEGYRKWLHDVRDAQLPSGAMPGIAPSNGWGYDRPGNEEFTFGPAWGSALGFVTWYMYLYHNDTALVREHYDAFKKYTDAVAKGAEGYLFKHGLDDWMSLVKTPMPLTSTAYFYTDAELVAKMARVLGNKADEQTYSRLADSIRAAFNRTYFDANTGVYKDSTMTALSAAVFHGLASPEAAAKTAAQLSSKVQRSNYHADFGVMGTKYVLPTLSDYGYADVAFRMLTDTGYAGWAHWIANGATTLFEDWPGELSHNHIFFGDYCAWYYKTLAGIRPDEAAPGFQHFYIQPAFVKALNFVKADYASSAGMIKVEWKRKGNSIKLSVEIPSRATVRLPAGMTDDKNATRITLNGQQFDQVVLTPGKYTFNLK
QS-17 (PAR %) [1]: 5.015%
Peak75 (PAR %) [2]: 2.458%
Peak57 (PAR %) [3]: 3.194%
ratio PP/QS-21 [4]: 0.17
